Measurements reported in the DeepSol protein solubility set.

Test: soluble on expression in E. coli; label from the status in PepcDB or PDB records

Row | Sequence | soluble on expression in E. coli
1 | MSASYQTIEHDVPQSYRDKILKWNGWGYSDSQFAINKDGHVTFTGDKYEISGKVMPHFRPWFENYLGIDLGFVSPAQKLSDVIIDAPVENEDIIEFLQENKISFSNEARIRLMRGHGHTVHDMINLREGKIPRLPDIVVWPKSEHEIVKIIEGAMSHNCAIIPIGGGTSVTNALDTPETEKRAVISMDMALLDKILWIDRENLTCRAQAGIVGQSLERQLNKKGFTCGHEPDSIEFSTLGGWVSTRASGMKKNKYGNIEDLVVHLNFVCPKGIIQKQCQVPRMSSGPDIHQIILGSEGTLGVVSEVTIKIFPIPEVKRFGSFVFPNFESGVNFFREVAIQRCQPASLRLMDNDQFVMGQALKVASDSWWADLKSSVSKMYITSWKGFKVDEICAATCVYEGNREEVDQHEERLNKLAEQFHGVVGGAENGQYGYRLTFAIAYLRDLGMNHGVLGESFETSVPWDKVLSLCRNVKELMKREAKAQGVTHPVLANCRVTQVYDAGACVYFYFGFNARGLKNGLEVYDRIETAARDEIIACGGSISHHHGVGKIRKQWMLTTNGAVGIALLKAIKSELDPANIFASANLIDIIGSPHCKL | not soluble
2 | MSATGKVSRPIQVFTRANYFFKLIFQFKVRKYNSLTVERIFIRAMCGSDDSFDDFVPDSQEPASSRTRNQDHLDDDEVPCSQRPDAANDTMVEDLDEGDEPAHDESEDIIKILVATDIHCGYGENKANIHMDAVNTFEEVLQIATEQKVDMILLGGDLFHENNPSREVQHRVTQLLRQYCLNGNPIALEFLSDASVNFNQSVFGHVNYYDQNLNVGLPIFTIHGNHDDLSGKGLTALDLLHESGLVNLFGKHSNIQEFIVSPILLRKGETRLALYGIGSQRDDRLVRAFKNNSISFLRPNAGAEDWFNLFVLHQNRPRRAMHRSTGNFLPESLIPQFFDLLIWGHEHECKPDPQYVASSEAVGDGFYILQPGSTVATSLTPEEALQKNAFLIKIKGRKFASKPIPLQTVRPMVCDELLLDKIPPGSRPILKTDRPKHTDGRYIDEIAIEAKINEMITTAKAKRRPRQPELPLIRLKVIYDGDWLNITPANAKRIGLRYENVVANAVDMVFIKKNNKPKEGKLQTENEKNITEMADEMGQVSATNLQTIINDYFINQPLVDQMTVLKPIGIGRALEQYSAIEEGGLATSANRNFDSCLMHQIDVVRKTLKKMPLPPINDPSDLDKFRDLITKDLYDMKKADSERFKNPVADVEMEEDEDDPQYYMPPQSTSRTNYASGSEDEVANSDEEMGSSISRHSKQPTTRGRGRGARGAGASRETTRGRSNKVVSTRQIDSDGFEIINDSPSPPPASRSTRGKARGKSAPSKKRDLSFF | not soluble
3 | MSAVVITDRHRRILKVNPAFTSISGFSANEVIGKNTFDVLLSESENIDKRLTTWKQVEELGAWQGELDVLSKNKRKLSLLVRIQSVKSKRKATQYYIISYIDITKR | not soluble
4 | MSAYKQANRLIHEKSPYLLQHAYNPVDWYPWCDEAFEKAKRENKPIFLSIGYSTCHWCHVMESESFEDEEVAEILNKNFVSIKVDREERPDIDSIYMTACQALTGHGGWPLTIIMTPDKKPFFAGTYFPKKDRMGMPGLISILKSVHNTWVNEKDSLAKYSSKVVSVISESIDDDYYYSVDEITEDIFEDAFSQFKYDFDNIYGGFGNAPKFPMPHNLYFLLRYWHKAKEEYALVMVEKTLDSMYSGGIYDHIGFGFCRYSTDEKWLVPHFEKMLYDNALLAIAYLETYQATKNKKYADIAKEIFTYVLRDMTSPEGGFYSAEDADSEGEEGKFYIWSPTEIKEVLGESDGEKFCKYYNITEEGNFEGLNIPNLINSTIPDEDKEFVELCRKKLFDHREKRVHPHKDDKILTAWNGLMIAALAIGGRVLGIEKYTLAAEKASEFIFSKLVRPDGRLLARYRDGEAAFLAYLDDYAFLIWALIELYETTYKPMYLKKAMELTNDMIKYFWDNKKGGLFIYGSDSEQLITRPKEIYDGAIPSGNSVAALNFLRLSRLTGQQELEEKAHQMFALFGSKIDSMPQGYAFFLTAMLFSKSKSNEVVLVGSNEKDTQNMLSILSEDFRPFTTSILYSEEHKDLKELIPFIDNYTTIENKPTAYVCENFVCHEPITDGALLREKLNR | soluble
5 | MSAYKTVVVGTDGSDSSMRAVDRAAQIAGADAKLIIASAYLPQHEDARAADILKDESYKVTGTAPIYEILHDAKERAHNAGAKNVEERPIVGAPVDALVNLADEEKADLLVVGNVGLSTIAGRLLGSVPANVSRRAKVDVLIVHTT | not soluble
6 | MSCCKECGHTLENVEVEAYEKRQVFDIPPVNLIVTEHKSQIKTCPHCGRINKAVFPESVKYPVQYGPNILASAIYCKNHHFIPYERISEFFEDIMGIKICPATIIRAEKECFQNLECFENIIREKLMTSYVVHFDETGMKIEGKRHWLHVASNDKYTCYLPHSKRGAEAIDAMGILPEFKGVAVHDGWKPYNVYDCDHAL | not soluble
7 | MSCRFYQHKFPEVEDVVMVNVRSIQEMGAYVSLLEYNNIEGMIHLSELSRRRIRSINKLIRIGRNECVKVIRVDKEKGYIDLSKRRVSPEEAIKCEDKFTKSKTVYSILRHVAEVLEYTKDEQLESLFQRTAWVFDDKYKRPGYGAYDAFKHAVSDPSILDSLDLNEDEREVLINNINRRLTPQAVKIRADIEVACYGYEGIDAVKEALRAGLNCSTENMPIKINLIAPPRYVMTTTTLERTEGLSVLSQAMAVIKEKIEEKRGVFNVQMEPKVVTDTDETELARQMERLERENAEVDGDLEHHHHHH | soluble
8 | MSDANPVFADYFKSWYGTYKIPGKSRTTVVRYETIYKKLNAYYGKAKLAKVTRKSYQIFMNEYGKKHAKDTVYKTNGSIRSCVRDGVADGIIQKDFTQKINLTWNLEHHHHHH | not soluble
9 | MSDEEEEDVNFKPGTEISSTKANYTVVRLLGEGGFGAVYLVQDNKSKKQSAMKVERKIEKRKHSKLKMEIAILKLVGSGKHFTQIVDRGKKDKEGFFFLVMELVGKSLADLKADRPDKVFSFATGLGVSCQCLEAVEELHKTGFIHRDLKPQNYACGLDEKRHNIYILDFGIARKYLNTKNELKTPRETVGFKGTVRFAPIACHRNTEMGPKDDCESWFYLLLDLIVPSGLPWRKLSDKHEVLKEKEECRKDKRSSLFAGLRQTDYLSKVLDYIDGRAYQDRVDYQFIYKNLAEACKVCNLDIDSPYDWELQKPEKTSKEPTSSKMP | not soluble
10 | MSDEESFVILGSSPCSSLMPDSSLRSDVCGNAQEAKETVASTSTQPPTVNCIPVSITASQQQHKSLDSGSSQQQSLATSFIMGEIQSDVLKNSVYSQFPSLCSLQGSAEEVVKLQNMMTEYLALKSQPNHAELPQPDSTMAPGSRRPRTPVQGACERVPSANRDPSRGKPRAEEGPRDENRADLEHHHHHH | not soluble
11 | MSDEVPEILLAHYLKTLKLPTFQREYQKLARLCATEGVDHVEYLLRLSEREMIERDRRKVERRIKAARFPVVKSLDSFDFAAIPKLNKMQVLELARCEWIERRENVIALGPSGTGKTHVALGLGLAACQKGLSVGFTTAAALVSEMMEARDERRLLRFQKQMAAYQLLIIDELGFVPLSKTGAELLFELISQRYERGATLITSNLPFDEWTETLGSERLTGALLDRITHHVNILEMNGDSYRLAQSRARKAGAAALEHHHHHH | soluble
12 | MSDIEVFELDDNFDPLEDIGLVDEEDIEHHDYQMPIPDAELSVVPEPVQLTPREKMDKLIAGIPGHKQRIVEVIRICEEPLTASEIEERLNDTYPQSASVYDAARIADLLVEAEGLVRLNAEEGADEETVAAPKTDTEHPEADVDAVVTPHAGVDETGDYLEVQPPEPSRYVATDEGLAFVAAMTDMAPVMELLEKEPRYLPIYERILRMTSNEEGCGKAELNKAIDSDELCQEPRRYTEYFLFRLQEVAAVRWNRVWYATDLGTSALNSNIFTK | not soluble
13 | MSDKKDFENNYEKTEDAWPIGVELVEHEISTGIWVTTQWQLTGFALNPTEETPDVCLLQLHKDERTDYRFNLSSQQPKLFLVMDNVESGEKPAIQLLTASQSVAAQYMDGDNLVLSNDMPLAVQAWMEAFIGRHGELLEVRRKKRKGAGRANGN | not soluble
14 | MSDLVMFEPGASTSTDVPTNTDQTAMSTTQVVDALECDTFEGLMNVNETYVEILDSALLSVQQHLDDNLKRQQQLKEEYRLYNRADITKRKVPVHLYMPPYFKDDNNMYPPMSSEAREKQVLKWFDPMMKEEKKWTPSEIKTLRTSVKNALVAHQVQPWCSRRDIVASKLRDADITTSNFDRRQWTMELEDLMRKIAYVREKSEEEVLTASADYTVVPWTAIANFDFKGSRTEWAVKSKWYNELNPKWNKEHWSNEEVEKLKYLRESPKFVSWPMLALNLGTNRTSYQCMEKYKTEVSQHSKEWSQDEDTKLIALTKITSINGHIQWDKVAQCMPGRTRQQVRTRFSHTLDASVKHGRWTDQEDVLLVCAVSRYGAKDWAKVAQAVQNRNDSQCRERWTNVLNRSAHVNERFTLVEDEQLLYAVKVFGKGNWAKCQMLLPKKTSRQLRRRYLQLIAAKLRLAAGFCNAVDAMKSGRRAPEEDELEQEDIVEAEQIPNELMKEVYEKFANENPDMNETPEEFYKRVSALERPAAARIRALKNKPDYQKIQDKINEIVQKHKNAAEIDKELHSSEILSSLTITEVDVRYMIERSKTLTRYYEARQFRKNVDQIGCRVRPIKIDLDPETMPTFDPNDAEDEKQMVIVESLCSVIRAHDVKEWGTKFWNEHRFTAPKYAKRFVENMVINKSKEVAEWYLHVNSKSCNQNDVHCPAKSTLPPTAASFDLHKMLQKARSGLNRLSAEHFYPLDVSLAQQFNFKNDEREGLDGDRRMHIGLSDEVTNSKEYANFYARMRSILLEPMRLGIARESSSDETKRLVRCLAEERACDEEQQVTCDQIRRRRMPDDEIYVTPTSISRELNNGMKIDTTELLANLDKNSAKKIRMKRKIGEVRCDTKIKLLPLVILATVATVAARPARPPRSSAGTPTPSHVSIDTESNISLKVELD | not soluble
15 | MSDNALSPQKNHRRLAETLVDRFAQRMRDGVLVRGEKLPSEIHIMEAEGVSRTVVRDALSRMQAAGLVETRHGVGTFVLDMPPPEGFSVGPATIASVADVLNLLEFRLSLEVEAAGLAAQRRSPEALLELKRAFDALLEGPQKSGTTINADFQFHLKIAKASGNAYLIDIMKHLGTKLIPRTRMNSAYTGQSDRSAYLAGINAEHRQIYNAIAEGNVDAARAAMYLHLNGSRMRLRRTQALYSD | not soluble
16 | MSDSAVVAAAVEPKVPKAKAAKAAKPTKVAKAKAPVAHPPYINMIKEAIKQLKDRKGASKQAILKFISQNYKLGDNVIQINAHLRQALKRGVTSKALVQAAGSGANGRFRVPEKAAAAKKPAAAKKPAAAKKPAAAKKATGEKKAKKPAAAKPKKAATGDKKVKKAKSPKKVAKPAAKKVAKSPAKKAAPKKIAKPAAKKAAKPAAKA | soluble
17 | MSDVATLESFRLADSFLPVGTYTVSYGLEQFIQDDRVEDATDLEGLLSTYLRRQIGPAELVALRAAHAAATDGDIEAICHADQRLSAVTLAAEFRESAQQSGDRLLSLQTELRDEALLNRYAERVDADDAPGNYAVVLGVATGLADVAVREACLLCCHGFVTGLLGAAQRLLSLGHTDAQRILNDLQPVMTAAVDDSADRGIDEMTPFAPLVDVLAAEHERAERRLFASLEHHHHHH | not soluble
18 | MSDVIFLRQYDDIDIVSSPSQNNIIFGHEAARHFLAQILKEERLPHAILFEGDYGIGKATLAFHLAWNILSSQKDGFKQPEHNSVIWRQITQGSHPGLLHISRRFDVKTQKFKTGILFDDIRDIIHFLNRTSKDSGWRIVIIDPADDMNRNAANAILKTLEEPPAKTLFIIITHFSGKLLPTIRSRCQQISLRPLHNDEMKKIIIHMFSNQNVIDEENIGMIIQKSNGNPRKAALLIHGGFEIIKTIDTLLGQSVCNPTIVHNLAQTLSSLSSVIQFQQFCDEILDKIQKKAIMLAERGNLALSKKCAQAWQEIHQEIGEIQSFNLDKKQFIINLLFRVHKIICESELFP | not soluble
